# In the nanobody polyreactivity screen of Harvey et al. (2022):
# Test: yeast display, Sf9 membrane polyspecificity reagent, FACS + sequencing; frameworks hold sequencing errors
# Outline: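 Galactose-induced (36–48 hours) yeast carrying a synthetic nanobody display library were exposed to 10% biotinylated, detergent-solubilized Sf9 membrane reagent at 4 °C for 1 hour. FACS followed streptavidin microbead enrichment, using low and high (top ~1%) gates for expression (anti-HA) and reagent binding (streptavidin). Colony PCR, MiSeq 2 × 250 sequencing and CDR-length filtering followed. Labels for polyreactivity reflect the gate of origin.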
row,Sequence,polyreactivity (PSR sort gate)
1,QVQLVESGGGLVQAGGSLRISCAASGSTLYRNAMGWYRQAPGKEMELVAAISSSGGTTFYADSVKGRFTISRDNAKNTVYLQMNSLKPEDTAVYYCNRNARKLRTVHSSVFGLDYWGQGTQVTVSS,low polyreactivity
2,QVQLVESGGGLVQAGGSLRISCAASGSTYRKYTMGWYRQAPGNERDLVATISWSGGSTNYADSVKGRFTISRDNAKTIVYLQMISLKPDDTAVYYCNAYVSPRYRGSRYYYWGQGTQVTVSS,high polyreactivity
3,QVQLVESGGGLVQAGGSLRISCAASGYIFAVYAMGWYRQAPGKEREFVAVITWRGGSTYYADSVKGRFTISRDNAKNTVYLQMNSLKPEDTAVYYCAARWHFLTSSRFDYWGQGTQVTVSS,high polyreactivity
4,QVQLVESGGGLVQAGGSLRISCAASGYIFFGNAMGWYRQAPGKERELVAAIRGRGTSTYYADSVKGRFTISRDNAKNTVYLQMNSLKPEDTAVYYFAADVVRSNFYGTFLYDYDYWGQCTQVTVSS,low polyreactivity
5,QVQLVESGGGLVQAGGSLRISCAASGYIFGTYAMGWYRQAPGKERELVAAISSTGRTYYADSVKGRFTISLDNAMNNVYLQMNRLKPEYTAVYYCAADVRTPSEGYDYWGQGTQVTVSS,high polyreactivity
6,QVQLVESGGGLVQAGGSLRISCAASGYNSYSNAMGWYRQAPGKERELVASILSGGSTNYADSVKGRFTISRDNAKNTVYLQMNSLKPEDTAVSYCATRVRTRTGYQYYYWGQGTQVTVSS,high polyreactivity
7,QVQLVESGGGLVQAGGSLRISCAASGYTFGKNAMGWYRQAPGKERELVAGISSRGGSTYYADSVKGRFTISRDNAKNTLYLQMNSLKPEDTAVYYCAAVAYTGGPRKLGFNYWGQGTQVTVSS,high polyreactivity
8,QVQLVESGGGLVQAGGSLRISCAASGYTVKSYAMGWYRQAPGKERELVAAISNGGNTYYADSVKGRFTISRDNAKNTVYLQMNSLKPEDTAVYYCAARYGYFYSRYDHWGQGTQVTVSS,low polyreactivity
9,QVQLVESGGGLVQAGGSLRISCAASVSIFARYAMGWYRQAPGQERELVAAISSRGGSTYYADSVKGRFTISRDNAKNTVYLQMNSLKPEDTAVYYCNKGYLVRPGVYWGQGTQVTVSS,high polyreactivity
10,QVQLVESGGGLVQAGGSLRISCDASGSIYSSNALGWYSQAPGKERELVAAISSSGSRTYYADSVKGRFTISRDKALITVYVQMNSLIPVDTAVDYWAAVIRYTRSYDYWGQGTQVTVSS,high polyreactivity
11,QVQLVESGGGLVQAGGSLRISCPASGTFYYYGMGWSRQAPGKERELVAAISWSGTSTFYADSVKGRFTISRDNAKNTVYIQMKSLKPEDTAVYYCHKPKFDSSGHDYWGQGTQETVSS,low polyreactivity
12,QVQLVESGGGLVQAGGSLRISSAASGNIFLYYAMGWYRQAPGKERELVAYIDSSGASTYYADSVKGRFTISRDNAKNTVYLQMNSLKPEDTAVYFCASDEGTVGGQQLRPLMDYWGQGTQVTVSS,low polyreactivity
13,QVQLVESGGGLVQAGGSLRISSAASGRIFVTNAMRWYRQAPGKERELLAAITRGGNTNYADSVKGRFTISRDNAKNTVYLQMNSLKPEDTAVYYCAADTSYDSVYGYFPGYYYWGQGTQVTVSS,low polyreactivity
14,QVQLVESGGGLVQAGGSLRITCAASGIIFGSYAMGWYRQAPGKETELVAAISTSGGSTYYADSVKGRFTISRDNAKNTVYLQMNSLKPEDTAVYYCNKAGVYRDSSRYNYWGQGTQVTVSS,high polyreactivity
15,QVQLVESGGGLVQAGGSLRITCAASGSTFGPYVMGWYRQAPGKEMELVAAISLSGASTYYADSVKGRFTISRDNAKNNVYLQMISLKPEETAVYYCAAQTPYGMYYWGQGTQVTVSS,low polyreactivity
16,QVQLVESGGGLVQAGGSLRLCCAASGRIFAGNAMGWYRQAPGKEREFVAGISKGGGRTYYADSVKGRCTISRDNAKKTVYLQMNSLKPEDTAVYYCAALPPRASSDAGGWYVAEDYWGQGTQVTVSS,high polyreactivity
17,QVQLVESGGGLVQAGGSLRLCCAASGYIFGWYTMGWYRPAPGKERELVAAISGGGRTYYADSVKGRFTISRDNAKNTVYLQKNSLKPEDTAVYYCNAYSTYIKYDYWGQGTQVTVSS,high polyreactivity
18,QVQLVESGGGLVQAGGSLRLCCAAYGSIFARNSMGWYRHAPGKERELVAVITTGGRTYYADSVKGRFTISRDNAKNTVYLQMNSMKPEDTAVYYCATRVIYGNSGGYWGKGTQVTVSS,high polyreactivity
19,QVQLVESGGGLVQAGGSLRLICAASGFIFDSYAMGWYRQAPGKARELVAAISVNGGTTYYADSVKGRFTISRDNAKNTVYLQMISLKPEDTAVYFCNADLYYDVGQPMDYWGQGTQVTVSS,low polyreactivity
20,QVQLVESGGGLVQAGGSLRLICAASGFIFFSNAMGWYRQAPGKERELVAVIDRATSTYYADSVKGRFTISRDNAKNTFYLQLNSLKPEDTAVYYCNADGEEVYDFNYFLSFKGDYWGQGTQVTVSS,low polyreactivity
21,QVQLVESGGGLVQAGGSLRLICAASGFIFGKYVMGWYRQAAGKERELVAAITSSGGRTYYADSVKGRFTISRDNAKNTVYLQMNSLKPEDTGVYYCAARYVSYWPWFEYDYWGQGTQVTVSS,high polyreactivity
22,QVQLVESGGGLVQAGGSLRLICAASGFIFSYYAMGWYRQAPGKERELVAAISKTGGNTYYADSVKGRFTISRDYAKNTVYLQMNSLKPEDTAVYYCNALRGDWRDMGYWGQGTQVTVSS,high polyreactivity

row,Sequence,polyreactivity (PSR sort gate)
1,QVQLVESGGGLVQAGGSLRLICAASGFIFWIYAMGWYRQAPGKEREFVAVITYRGDTTYYADSVKGRFTISRDNAKNTVYLQMNSLKPEDTAVYYCAAYTVQKYGYWGQGTQVTVSS,low polyreactivity
2,QVQLVESGGGLVQAGGSLRLICAASGFNLEYYSMGWYRQATGKERELVAVITESDGNTYYPDSVKGRFTISRDTAKNTVYLQMYSLKPEDTALYYCAAPYSFIQGGIRRGYHGYVYWGQGTQVTVSS,low polyreactivity
3,QVQLVESGGGLVQAGGSLRLICAASGFTFAKYAMGSYTQAPGKERQLVAGITGNSGTTYYADSVKGRFTISRDNAKNTVYLQMNSLKPEDTAVYYCAAEEVSWNGTGDYWGQGTQVTVSS,high polyreactivity
4,QVQLVESGGGLVQAGGSLRLICAASGFTFGYYAMGWYRQAPGKEREFVARISWSGDSTYYADSVKGRFTISRDNAKNTVYLQMTSLKPEDTAVYYCAARFTRQMYYWGQGTQVTVSS,high polyreactivity
5,QVQLVESGGGLVQAGGSLRLICAASGFTFLVNAMGWYRQAPGKERELVAAISSGGSTYYADSVKGRFTISRDNAKNTVYLQMNSLKPEDTAVYYCAAPTDFLFWEFDYWGQGTQVTVSS,low polyreactivity
6,QVQLVESGGGLVQAGGSLRLICAASGFTFSGNTMGWYRQAPGKERELVATISRTGGITYYADSVKGRFTISRDNAKNTVYLQMNSLKPEDTAVYYCNRRYYYFVYPDDYWGQGTQVTVSS,high polyreactivity
7,QVQLVESGGGLVQAGGSLRLICAASGFTFSYNAMGWYRPAPGTERELVAVITKSGGSTNYADSVKGRFTISRDNAKNTVYLQRNSLKPEDTAVYYCNRQIKKLLTTHYYWGQGTQVTVSS,high polyreactivity
8,QVQLVESGGGLVQAGGSLRLICAASGFTFTQYVMGWYSQAPGKERELVAAINWSGGNTYYAESVKGRFTISRDNAKNTVYLQMNSLKPEDTAVYYCAAYRHRNGYDYWGQGTQVTVSS,high polyreactivity
9,QVQLVESGGGLVQAGGSLRLICAASGFTFWDYTMGWYIQAPGKERELVAAITRSGGRTYYADSVKGRFTISRDNENNTFYLQMNSLKTEDTAVYYCAAKIWSKDEKHDYWGQGTQVTVSS,high polyreactivity
10,QVQLVESGGGLVQAGGSLRLICAASGFTFYRYAMGWYRPAPGKERELVAAITNIAGSTYYADSVKGRFTISRDNAKNTLYLQMNSLKPEDTAVYYCNANRLRRYDYWGQGTQVTVSS,high polyreactivity
11,QVQLVESGGGLVQAGGSLRLICAASGFTIGANTMGWYREAPGKERELVAAITSGGRTYYADSVKGRFTISRDNAKNTVYLQMNSLKPEDTAVYYCAAGRPRTIFQEYGSWGQGTQVTVSS,high polyreactivity
12,QVQLVESGGGLVQAGGSLRLICAASGIIFAYYAMGWYRQSPGKERELVAAITWSGGRTYYADSVKGRFTISRDNAKNTVYLQMNSLKPEDTSVYYCAARFTRQMYYWGQGTQVTVSS,high polyreactivity
13,QVQLVESGGGLVQAGGSLRLICAASGIIFDDYAMVWYRQAPGNERELVAAISVSGGSTYYADSVKGRFTISRDNAKNTVYLQMNSLKPEDTAVYYCAARLRWRYSYDYWGQGTQVTVSS,high polyreactivity
14,QVQLVESGGGLVQAGGSLRLICAASGIIFPSYAMGWYRQAPGKERELVAGISLSGGSTYYADSVKGRFTISRDNAKNTVYLQMNSLKPEDTAVYYCDTRNHYFRALRYGYWGQGTLVTVSS,high polyreactivity
15,QVQLVESGGGLVQAGGSLRLICAASGIIFQYYAMGWYRQAPGKERELVAAISWSGGSTYYADSVKGRFTISRDNAKNTVYLQMNSVKPEETAVYYCNAVYYSRIVGVRIYDYWGQGTQVTVSS,low polyreactivity
16,QVQLVESGGGLVQAGGSLRLICAASGIIFTRYAMGWYRQAPGKERELVAAISTRGGSTYYADSVKGRFTISRDNAMNTVYLQMNSLKPEDTAVYYCAATNAKDGEMDYWGQGTQVTVSS,high polyreactivity
17,QVQLVESGGGLVQAGGSLRLICAASGIIFVGYAMGWYRQAPGKERELVAAIDGTGDSTYYADSVKGRFTISRDNAKNTVYLQMNSLKPEDTAVYYCDAEYDYRWWYGYDYWGQATQVTVSS,high polyreactivity
18,QVQLVESGGGLVQAGGSLRLICAASGIIFVSNAMGWYRQAPGKERELVATINWSDDSTYYADSVKGRFTISRDNAKYTVYLQMNSLKPEDTAVYYCNARPLRYVESDYWGQGTQVTVSS,low polyreactivity
19,QVQLVESGGGLVQAGGSLRLICAASGIILVYYDMGWYRQAPGKEMELVDTISRGGSTNYADSVMGRFTISRDNAKNTVYLQMISLKPEDTAVNYCAAGSYSIWVHLVRYYYWGQGTQVTVSS,high polyreactivity
20,QVQLVESGGGLVQAGGSLRLICAASGIIYYYYAMGWYRQAPGKERELVAAINFSVGGTYYADSVKGSFTNSRDNAKNSVYLQMNSQKPEDTAVYYCAKDIVIPATYVEYDYWGQGTQVTVSS,low polyreactivity
21,QVQLVESGGGLVQAGGSLRLICAASGILVYNAMGWYRQAPGKERELVAAISARGGRKYYADSVKGRFTISRDNAKNTVYLQMYSLKTEDTAVYYCATLETSGVNYWGQGTQVTVSS,high polyreactivity
